Experimental data from publication PMC8242512.

Target: soluble trimeric SARS-CoV-2 S glycoprotein, 2P-stabilized, lacking the furin cleavage site (SARS-CoV-2) (UniProt P0DTC2)
Test: SPR; S protein captured on a Ni2+-loaded NTA chip; ACE2 as analyte, serial dilutions 200 nM to 3.125 nM in triplicate, 50 ul/min, HBS P+ buffer, association 300 s, dissociation 600 s; 1:1 binding model (Biacore Evaluation Software)

Chain of truncated soluble angiotensin-converting enzyme 2 (hACE2) (Q9BYF1 18-626): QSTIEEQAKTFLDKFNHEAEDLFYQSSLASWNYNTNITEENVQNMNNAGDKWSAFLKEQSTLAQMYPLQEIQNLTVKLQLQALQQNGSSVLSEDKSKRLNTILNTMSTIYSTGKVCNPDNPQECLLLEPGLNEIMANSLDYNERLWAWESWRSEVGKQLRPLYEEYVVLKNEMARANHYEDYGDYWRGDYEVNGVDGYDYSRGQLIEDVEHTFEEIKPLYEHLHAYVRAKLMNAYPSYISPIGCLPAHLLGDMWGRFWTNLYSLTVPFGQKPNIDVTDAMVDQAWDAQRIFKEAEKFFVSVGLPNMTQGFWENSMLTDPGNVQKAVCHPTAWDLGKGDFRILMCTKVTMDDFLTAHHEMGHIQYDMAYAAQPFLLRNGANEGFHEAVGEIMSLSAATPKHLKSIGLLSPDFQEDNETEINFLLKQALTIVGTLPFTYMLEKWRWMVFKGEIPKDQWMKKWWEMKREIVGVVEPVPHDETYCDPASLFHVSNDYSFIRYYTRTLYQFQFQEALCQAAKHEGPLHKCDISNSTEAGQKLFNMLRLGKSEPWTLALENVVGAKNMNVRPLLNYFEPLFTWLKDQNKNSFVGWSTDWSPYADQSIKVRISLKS

Substance “truncated soluble angiotensin-converting enzyme 2 (hACE2) (from UniProt Q9BYF1 18-626) (receptor)” has a Kd of 0.084 µM.
